The target in the assay is T1, RLD2 BRX domain (residues 1006-1066) (Arabidopsis thaliana, UniProt F4K0X5 1006-1066).
T1 construct: HRV3C cleavage may leave vector residues at the N-terminus (surmised); source: E. coli BL21Star (DE3), purified (His-tag resin, HRV3C cleavage, gel filtration); for crystals co-expressed with LZY3 (274-287); not shown: His6, N-terminal, cleaved
T1 sequence (looked up): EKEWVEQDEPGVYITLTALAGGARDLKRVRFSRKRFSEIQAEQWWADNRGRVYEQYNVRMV
The experiment in a line: ITC; iTC200, 20 °C; 20 mM Tris-HCl pH 8.0, 150 mM NaCl; 200 μM LZY3 (274-287) injected into 20 μM RLD2 BRX domain; 1:1 binding model. Particulars: both partners purified. In general terms: Isothermal titration calorimetry measures the heat released or taken up as one component is titrated into another.

The values below come from article PMC6941992, “Polar recruitment of RLD by LAZY1-like protein during gravity signaling in root branch angle control” (Nature Communications, 2020).

B1: LZY3 CCL peptide (residues 274-287) (peptide, UniProt Q5XVG3 274-287, looked up)
chain: KWVKTDSDFIVLEI
notes: LZY3 (LAZY1-LIKE 3), Arabidopsis thaliana, residues 274-287 (CCL domain); HRV3C cleavage may leave vector residues at the N-terminus (surmised); also called CCL β-hairpin; source: E. coli BL21Star (DE3), purified (glutathione sepharose, HRV3C cleavage, gel filtration, reverse phase); for crystals co-expressed with RLD2; not shown: GST, N-terminal, cleaved
Usually Kd stands for the free concentration of one partner at which half of the binding sites on the other are occupied at equilibrium, for simple one-to-one binding. Low readings indicate tighter binding, high ones weaker binding. In general, stoichiometry N refers to the number of molecules, sites or subunits per partner or assembly. Turning to B1, the Kd is 9.7 ± 2.2 nM, the dH was -11.3 ± 0.09 kcal/mol and the “stoichiometry N” value is 0.73 ± 0.002.
